Our source for the stoichiometry N values is article PMC6971018.

A word on the stoichiometry N: it is the number of molecules, sites or subunits per partner or assembly.

In test [1] the target is His6x-CutF, purified (Klebsiella pneumoniae) (UniProt A6T4Z5). The test is described as follows: SEC; purified His6x-tagged core enzymes, alone and together, on the Superose 6 column. (In general: In gel filtration, larger molecules generally elute earlier.)
Test [2] concerns the target cmcD (BMC-P shell protein) (Klebsiella pneumoniae). The test is described as follows: cryo-EM structure; small type cmcABC′ + cmcD + CutC_(336–1128) BDPs (gel filtration 90-100 ml), 1 mg/ml in 100 mM NaCl, 20 mM Tris-HCl pH 8.0; pT = 4 icosahedral map at 3.3 Å.

For the substance “His6x-CutF, purified (from UniProt A6T4Z5 1-239) (enzyme)”, the stoichiometry N in test [1] stood at 4.
For the substance “cmcD (BMC-P shell protein) (natural protein)”, in test [2], the stoichiometry N was determined as 5.
